This passage reports stoichiometry N results from paper doi:10.1101/2022.10.14.512337.

Values joined by “and” are separate entries in the source; they are usually repeats but may differ in a detail not shown here. Equal entries are not always repeated.

The target of test [1] is L. farciminis oxalate decarboxylase (OxDC), as used for size-exclusion chromatography (L. farciminis). The test is described as follows: SEC.
The target of test [2] is truncated protein consisting of the main body of L. farciminis OxDC (aa 22-373) (L. farciminis). The test is described as follows: crystal structure.

As for “L. farciminis oxalate decarboxylase (OxDC), as used for size-exclusion chromatography (enzyme)”, the stoichiometry N (usually the number of molecules, sites or subunits per partner or assembly) in test [1] is 2 and 6.

The substance “truncated protein consisting of the main body of L. farciminis OxDC (aa 22-373) (domain or fragment)” returned a stoichiometry N in test [2] of 6.
